From PMC12820186

T1: CsEIN3 DNA-binding domain (CsEIN3-BD) (cucumber, UniProt A0A0A0LXB4 1-412)
T1 sequence: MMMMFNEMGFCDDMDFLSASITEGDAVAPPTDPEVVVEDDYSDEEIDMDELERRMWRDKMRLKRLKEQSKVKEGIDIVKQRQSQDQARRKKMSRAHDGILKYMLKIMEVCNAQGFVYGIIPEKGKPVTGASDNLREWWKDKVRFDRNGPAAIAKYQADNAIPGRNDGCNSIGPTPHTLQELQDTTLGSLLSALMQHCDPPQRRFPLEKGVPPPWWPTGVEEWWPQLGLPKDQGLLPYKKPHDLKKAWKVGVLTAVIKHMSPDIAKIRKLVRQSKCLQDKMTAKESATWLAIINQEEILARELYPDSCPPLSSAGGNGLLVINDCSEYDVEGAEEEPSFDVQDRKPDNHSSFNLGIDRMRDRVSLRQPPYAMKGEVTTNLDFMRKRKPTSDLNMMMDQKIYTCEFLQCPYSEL

B1: proCsCYP707A4 p2 probe (dsDNA)
DNA 1: CGTCGTGTGAAGTACTTCATGGAGACGAATAAAAG
DNA 2: CTTTTATTCGTCTCCATGAAGTACTTCACACGACG
B2: proCsCYP707A4 p3 probe (dsDNA)
DNA 1: TTGCCAACTAATTTCATGTTCAATCAATGAAAGTGA
DNA 2: TCACTTTCATTGATTGAACATGAAATTAGTTGGCAA
B3: proCsCYP707A4 p4 probe (dsDNA)
DNA 1: GCGAACGTCGTGTGAAGTACTTCATGGAGACGAATA
DNA 2: TATTCGTCTCCATGAAGTACTTCACACGACGTTCGC

These binders were tested against T1, CsEIN3 DNA-binding domain (CsEIN3-BD) (assay: EMSA).

Binding result, no binding:
B1, B2, B3
